Target: the molecule itself
Test: crystal structure

B1: Saccharopolyspora erythraea GlnR-DBD (domain or fragment)
chain: DGMLTVGDLVIEESTYTARLKGRALELTYKEFELLKYLAQHAGRVFTRAQLLQEVWGYDFFGGTRTVDVHVRRLRAKLGPEYDSMIGTVRNVGYKFVRPS
binding result: binds
